Measured values reported in US20250215100A1 (HARBOUR BIOMED SHANGHAI, published 2025).
Numbering of substitutions follows the chain as printed. In names and notes the source's numbering stands.

B1: PR006239 (antibody, human IgG1, kappa)
heavy: QVQLVQSGAEVKKPGASVKVSCKASGYTFAGYYMYWVRQAPGQGLEWMGWINPDSGAPTYAQKFQGRVTMTRDTSISTAYMELSRLRSDDTAVYYCAREKIYYGSGNYYPSFDYWGQGTLVTVSSASTKGPSVFPLAPSSKSTSGGTAALGCLVKDYFPEPVTVSWNSGALTSGVHTFPAVLQSSGLYSLSSVVTVPSSSLGTQTYICNVNHKPSNTKVDKKVEPKSCDKTHTCPPCPAPEAAGAPSVFLFPPKPKDTLMISRTPEVTCVVVDVSHEDPEVKFNWYVDGVEVHNAKTKPREEQYNSTYRVVSVLTVLHQDWLNGKEYKCKVSNKALPAPIEKTISKAKGQPREPQVYTLPPSREEMTKNQVSLTCLVKGFYPSDIAVEWESNGQPENNYKTTPPVLDSDGSFFLYSKLTVDKSRWQQGNVFSCSVMHEALHNHYTQKSLSLSPGK
light: DIQLTQSPSFLSASVGDRVTITCRASQGISSYLAWYQQKPGKAPKLLIYAASTLQSGVPSRFSGSGSGTEFTLTISSLQPEDFATYYCQQLNSYPWTFGQGTKVEIKRTVAAPSVFIFPPSDEQLKSGTASVVCLLNNFYPREAKVQWKVDNALQSGNSQESVTEQDSKDSTYSLSSTLTLSKADYEKHKVYACEVTHQGLSSPVTKSFNRGEC
notes: Variable regions of PR003379 on human IgG1 with L234A, L235A, G237A; no mutation in the variable region
B2: PR006501 (antibody, human IgG1, kappa, V domains shown)
VH: QVQLVQSGAEVKKPGASVKVSCKASGYTFAGYYMYWVRQAPGQGLEWMGWINPDSGAPTYAQKFQGRVTMTRDTSISTAYMELSRLRSDDTAVYYCAREKIYYGSGNYYPSFDYWGQGTLVTVSS
VL: DIQLTQSPSFLSASVGDRVTITCRASQGISSYLAWYQQKPGKAPKLLIYAASTLQSGVPSRFSGSGSGTEFTLTISSLQPEDFATYYCQQLQSYPWTFGQGTKVEIKR
notes: PR003379 variant L:N92Q; human IgG1 L234A, L235A, G237A
B3: PR006505 (antibody, human IgG1, kappa, V domains shown)
VH: B2 VH
VL: B2 VL with Q92N, S93I
notes: PR003379 variant L:S93I; human IgG1 L234A, L235A, G237A
B4: PR006503 (antibody, human IgG1, kappa, V domains shown)
VH: B2 VH
VL: B2 VL with Q92G
notes: PR003379 variant L:N92G; human IgG1 L234A, L235A, G237A
B5: PR006509 (antibody, human IgG1, kappa, V domains shown)
VH: B2 VH
VL: B2 VL with Q92N, S93L
notes: PR003379 variant L:S93L; human IgG1 L234A, L235A, G237A
B6: PR006494 (antibody, human IgG1, kappa, V domains shown)
VH: B2 VH
VL: B2 VL with Q92T
notes: PR003379 variant L:N92T; human IgG1 L234A, L235A, G237A
B7: PR006514 (antibody, human IgG1, kappa, V domains shown)
VH: B2 VH
VL: B2 VL with Q92N, S93V
notes: PR003379 variant L:S93V; human IgG1 L234A, L235A, G237A
B8: PR006512 (antibody, human IgG1, kappa, V domains shown)
VH: B2 VH
VL: B2 VL with Q92N, S93T
notes: PR003379 variant L:S93T; human IgG1 L234A, L235A, G237A
B9: PR006506 (antibody, human IgG1, kappa, V domains shown)
VH: B2 VH
VL: B2 VL with Q92N, S93F
notes: PR003379 variant L:S93F; human IgG1 L234A, L235A, G237A
B10: PR006492 (antibody, human IgG1, kappa, V domains shown)
VH: B2 VH
VL: B2 VL with Q92E
notes: PR003379 variant L:N92E; human IgG1 L234A, L235A, G237A
B11: PR006516 (antibody, human IgG1, kappa, V domains shown)
VH: B2 VH
VL: B2 VL with Q92N, S93H
notes: PR003379 variant L:S93H; human IgG1 L234A, L235A, G237A
B12: PR006493 (antibody, human IgG1, kappa, V domains shown)
VH: B2 VH
VL: B2 VL with Q92L
notes: PR003379 variant L:N92L; human IgG1 L234A, L235A, G237A
B13: PR006513 (antibody, human IgG1, kappa, V domains shown)
VH: B2 VH
VL: B2 VL with Q92N, S93Q
notes: PR003379 variant L:S93Q; human IgG1 L234A, L235A, G237A
B14: PR006507 (antibody, human IgG1, kappa, V domains shown)
VH: B2 VH
VL: B2 VL with Q92N, S93E
notes: PR003379 variant L:S93E; human IgG1 L234A, L235A, G237A
B15: PR001303 (APX005) (antibody, human IgG1, kappa)
heavy: not shown
light: DIQMTQSPSSLSASVGDRVTIKCQASQSISSRLAWYQQKPGKPPKLLIYRASTLASGVPSRFSGSGSGTDFTLTISSLQPEDVATYYCQCTGYGISWPIGGGTKVEIKRTVAAPSVFIFPPSDEQLKSGTASVVCLLNNFYPREAKVQWKVDNALQSGNSQESVTEQDSKDSTYSLSSTLTLSKADYEKHKVYACEVTHQGLSSPVTKSFNRGEC
notes: CD40 positive control antibody

Legend:
human CD40 on cells [1] = biological target: T1, human CD40 on cells (human, UniProt P25942 21-277); assay: cell-based or functional assay
[2] = biological target: T2, cynomolgus monkey CD40 on cells (cynomolgus monkey, UniProt G7PG38 21-278); assay: FACS, CHO-K1/cyCD40 cells
T2 construct: also called cyCD40; CHO-K1/cyCD40
Source text: (§1) Flow cytometry (FACS) was used to detect the binding ability of the CD40 antibody to cells, such as, CHO-K1/hCD40 highly expressing human CD40 (constructed by Beijing Kyinno Biotechnology), CHO-K1/cyCD40 highly expressing cynomolgus monkey CD40 (constructed by Beijing Kyinno Biotechnology) and lymphoma cell highly expressing human CD40, Raji (ATCC, #CCL-86). Specifically, the cells were digested and resuspended with complete medium (F-12K for CHO-K1 cells; and RPMI-1640 for Raji cells); and the cells were adjusted to a cell density of 1×10⁶ cells/mL. The cells were seeded in a 96-well V-bottom plate (Corning, #3894) at 100 μL/well, and the antigen binding protein to be tested at 2x final concentration was then added at 100 μL/well and mixed evenly, with the highest final concentration of the antigen binding protein of 300 nM, a total of 8 concentrations, and 5-fold concentration gradient dilution. hIgG (Crownbio, #C0002) was used as a negative control, and the positive control molecule was the molecule in Table 1-5. The cells were incubated at 4° C. for 1 hours in the dark. After the incubation, the cells were rinsed twice by adding pre-chilled PBS at 100 μL/well, and centrifuged at 500 g at 4° C. for 5 minutes, and the supernatant was discarded. Then, a fluorescent secondary antibody (goat anti-human IgG (H+L) secondary antibody, Alexa Fluor® 488 conjugate, Invitrogen, #A11013, 1:1000 dilution) was added at 100 µL/well, and the cells were incubated at 4° C. for 30 minutes in the dark. The cells were washed twice with pre-chilled PBS at 200 μL/well, and centrifuged at 500 g at 4° C. for 5 minutes, and the supernatant was discarded. Finally, the cells were resuspended in pre-chilled PBS at 200 μL/well. The fluorescence signal values were read using a BD FACS CANTOII flow cytometer or ACEA NovoCyte flow cytometer, and the data were processed and analyzed using FlowJo v10 software (FlowJo, LLC).
(§2) Data processing and graphical analysis were performed using GraphPad Prism 8 software. The binding curve of the antibody to the target cell and parameters, such as EC50 value were obtained by four-parameter nonlinear fitting.

human CD40 on cells [3] = biological target: T1, human CD40 on cells; assay: FACS, CHO-K1/hCD40 cells
Source text: as §1, §2

human CD40 on cells [4] = biological target: T1, human CD40 on cells; assay: FACS, Raji cells
Source text: as §1, §2

T2 sequence (G7PG38 entry or part of it limits assumed): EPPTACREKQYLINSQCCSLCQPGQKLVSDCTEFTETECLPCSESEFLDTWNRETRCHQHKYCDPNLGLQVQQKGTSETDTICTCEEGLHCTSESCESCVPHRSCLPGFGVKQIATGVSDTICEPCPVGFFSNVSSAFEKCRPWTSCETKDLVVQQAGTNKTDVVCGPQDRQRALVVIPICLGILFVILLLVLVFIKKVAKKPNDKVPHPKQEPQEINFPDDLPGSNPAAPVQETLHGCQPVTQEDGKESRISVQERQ
T1 sequence (P25942 21-277): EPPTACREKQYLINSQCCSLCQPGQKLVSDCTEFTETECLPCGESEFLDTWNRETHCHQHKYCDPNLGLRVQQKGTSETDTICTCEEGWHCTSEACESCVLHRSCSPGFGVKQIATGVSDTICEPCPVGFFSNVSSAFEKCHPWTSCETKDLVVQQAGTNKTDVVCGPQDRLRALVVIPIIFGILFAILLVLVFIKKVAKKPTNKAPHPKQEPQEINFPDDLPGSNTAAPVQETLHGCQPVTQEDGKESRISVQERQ

Row | Binder | EC50 (nM), crosslinked, HEK293-hCD40-NFkB reporter (human CD40 on cells [1]) [nM] | EC50 (nM), uncrosslinked, HEK293-hCD40-NFkB reporter (human CD40 on cells [1]) [nM] | Fold (EC50 in the absence of crosslinking/EC50 in the presence of crosslinking) (human CD40 on cells [1]) [fold] | Maximum fold (fold), crosslinked (human CD40 on cells [1]) [fold] | Maximum fold (fold), uncrosslinked (human CD40 on cells [1]) [fold] | EC50 [2] [nM] | Maximum MFI [2] [MFI] | EC50 (human CD40 on cells [3]) [nM] | Maximum MFI (human CD40 on cells [3]) [MFI] | EC50 (human CD40 on cells [4]) [nM] | Maximum MFI (human CD40 on cells [4]) [MFI]
1 | B1 | 0.098 | 0.173 | 1.77 | 5.76 | 4.58 | 4.41 | 51800 | 6.67 | 88600 | 0.332 | 9050
2 | B2 | – | – | – | – | – | 4.19 | 48200 | 5.29 | 91000 | 0.352 | 9000
3 | B3 | – | – | – | – | – | 4.62 | 48100 | 6.08 | 82700 | 0.336 | 11900
4 | B4 | – | – | – | – | – | 3.99 | 49600 | 6.07 | 84500 | 0.333 | 12200
5 | B5 | – | – | – | – | – | 4.69 | 45300 | 5.51 | 79600 | 0.371 | 12200
6 | B6 | – | – | – | – | – | 4.04 | 49600 | 8.73 | 98800 | 0.328 | 9180
7 | B7 | – | – | – | – | – | 4.23 | 45100 | 5.08 | 86900 | 0.455 | 12000
8 | B8 | – | – | – | – | – | 4.55 | 45800 | 5.18 | 81600 | 0.424 | 12100
9 | B9 | – | – | – | – | – | 4.5 | 47300 | 5.85 | 82800 | 0.388 | 12100
10 | B10 | – | – | – | – | – | 6.26 | 52200 | 8.87 | 92300 | 0.418 | 9070
11 | B11 | – | – | – | – | – | 5.29 | 51400 | 5.08 | 86100 | 0.351 | 8900
12 | B12 | – | – | – | – | – | 4.06 | 48900 | 5.26 | 83400 | 0.377 | 9350
13 | B13 | – | – | – | – | – | 3.56 | 40200 | 7.51 | 89200 | 0.373 | 12000
14 | B14 | – | – | – | – | – | 5.01 | 49300 | 5.58 | 81800 | 0.384 | 12300
15 | B15 | – | – | – | – | – | 4.72 | 93600 | 2.83 | 26000 | 0.0347 | 2790
